Source: patent US20220112288A1 (published 2022)

What was measured:
[1] = molecular target: T1, human CD4 on cells (SKW3 cells; human PBMCs) (human, UniProt P01730 26-458); assay: FACS confirmation, supernatant on human PBMCs, anti-mFc 647, percent of viable cells
T1 construct: whole, on cells; SKW3 CD4 knockout cells served as the negative cell line for the WT vs KO ratios; also called hCD4; SKW3 WT

[2] = molecular target: T1, human CD4 on cells (SKW3 cells; human …); assay: FACS confirmation, supernatant on SKW3 WT cells, anti-mFc 647 (Bkrd gMFI = 3300)
[3] = molecular target: T1, human CD4 on cells (SKW3 cells; human …); assay: FACS primary screen, non-clonal hybridoma supernatant; SKW3 WT vs SKW3 CD4 KO cells, anti-mFc-647
[4] = molecular target: T1, human CD4 on cells (SKW3 cells; human …); assay: FACS confirmation, supernatant on SKW3 WT cells, anti-hu Kappa FITC (Bkrd gMFI = 2500)
[5] = molecular target: T1, human CD4 on cells (SKW3 cells; human …); assay: FACS confirmation, supernatant on human PBMCs, anti-mFc 647, CD4+ gate
[6] = molecular target: T1, human CD4 on cells (SKW3 cells; human …); assay: FACS primary screen, non-clonal hybridoma supernatant; SKW3 WT vs SKW3 CD4 KO cells, anti-hKappa-FITC
[7] = molecular target: T2, human CD4 on cells (SKW3 cells; human PBMCs) (human, UniProt P01730 26-458); assay: FACS confirmation, supernatant on SKW3 cells; background gMFI 2500
T2 construct: whole, on cells; SKW3 CD4 knockout cells served as the negative cell line in the primary screen; also called hCD4; huCD4

[8] = molecular target: T2, human CD4 on cells (SKW3 cells; human …); assay: FACS binning on SKW3 cells; competitor RPA-T4-PE-Dazzle 594; background 783, max binding 15000
[9] = molecular target: T2, human CD4 on cells (SKW3 cells; human …); assay: FACS confirmation, supernatant on human PBMCs;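 further: flow cytometry with hybridoma supernatants incubated on human PBMCs for 30 min at 4 °C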
[10] = molecular target: T2, human CD4 on cells (SKW3 cells; human …); assay: FACS primary screen, hybridoma supernatant, SKW3 vs SKW3 CD4 KO cells;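 further: flow cytometry on mixed SKW3 and dye-labeled SKW3 CD4 knockout cells after 30 min at 4 °C with supernatant, ratio of binding signal on parental versus knockout cells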
[11] = molecular target: T2, human CD4 on cells (SKW3 cells; human …); assay: FACS confirmation, supernatant on SKW3 cells; background gMFI 3300
[12] = molecular target: T2, human CD4 on cells (SKW3 cells; human …); assay: FACS binning on SKW3 cells; competitor OKT4a; background 5000, max binding 35000
[13] = molecular target: T2, human CD4 on cells (SKW3 cells; human …); assay: FACS binning on SKW3 cells; competitor OKT4-A488; background 2163, max binding 8200
huCD4-HIS = molecular target: T3, huCD4-HIS (human, UniProt P01730 26-390, limits assumed); assay: ELISA binning; competitor ibalizumab; 100 ng/mL huCD4-HIS, anti-HIS HRP; background 45, max binding 3000000
T3 construct: the ELISA is not described in the text of this stretch; also called human CD4-HIS

B1: 75110_03I08A (antibody, V domains shown)
VH: QVQLQESGPGLVKPSETLSLTCTVSGGSISSYYWSWIRQPPGKGLEWIGYIYYSGSTNYNPSLKSRVTISVDTSKNQFSLKLSSVTAADTAVYYCAREGEQWFYGLDVWGQGTTVTVSS
VL: EIVLTQSPGTLSLSPGERATLSCRASQSVSSTYLAWYQQKPGQAPRLLIYGSSSRATGIPDRFSGSGSGTDFTLTISRLEPEDFAVYYCQQYGNSFPITFGQGTRLEIK
notes: Tested as non-clonal hybridoma supernatant (AlivaMab Mouse Kappa), detected with anti-mouse Fc and anti-human kappa
CD4+ Percent Bound of Viable [1]: 32% | gMFI [2]: 28000 gMFI | SKW3 WT vs KO anti-mFc-647 [3]: 7.6 fold | gMFI [4]: 6120 gMFI | CD4+ gate RL1 Binding [5]: 338000 | SKW3 WT vs KO anti-hKappa-FITC [6]: 2.2 fold

B2: 75110_05G15A (antibody, V domains shown)
VH: QVQLQESGPGLVKPSQTLSLTCTVSGGSISSGGYFWSWIRQHPGKGLEWIGCIYYSGSTYYIPSLKSRVTISVDTSKNQFSLKLRSVTAADTAVYYCARDGYDYWYFDLWGRGTLVTVSS
VL: not shown
gMFI on SKW3 WT, anti-hu Kappa FITC [7]: 6000 gMFI | RPA-T4-PE-Dazzle 594 signal with supernatant [8]: 15800 | PBMCs CD4+ gate RL1 binding, anti-mFc 647 [9]: 147000 | PBMCs CD4+ percent bound of viable [9]: 32% | SKW3 WT vs KO ratio, anti-hKappa-FITC [10]: 1.5 | SKW3 WT vs KO ratio, anti-mFc-647 [10]: 2.8 | gMFI on SKW3 WT, anti-mFc 647 [11]: 28600 gMFI | OKT4a signal (anti-hu A647) with supernatant [12]: 42300 | OKT4-A488 signal with supernatant [13]: 8080 | Ibalizumab ELISA binning signal (huCD4-HIS): 1.7e+06

B3: 75110_06C16A (antibody, V domains shown)
VH: QVQLQESGPGLVTPSETLSLSCTVSGGSISDYYWSWIRQPGGKGLEWIGRIYSSGSTNYNPSLKSRVTMSVDTSKNQFSLKLSSVTAADTAVYFCARDREDYYYYGMDVWGQGTTVTVSS
VL: DIQMTQSPSSLSASVGDRVTITCQASHDISNYLNWYQQKPGKAPKLLIYAASNLETGVPSRFSGSGSGTDFSFTISSLQPEDIATYYCQQYDHLPLTFGGGTKVEIK
notes: Tested as non-clonal AlivaMab Mouse Kappa hybridoma supernatant (detected with anti-mouse Fc gamma and anti-human kappa)
gMFI on SKW3 WT, anti-hu Kappa FITC [7]: 4660 gMFI | RPA-T4-PE-Dazzle 594 signal with supernatant [8]: 15600 | PBMCs CD4+ gate RL1 binding, anti-mFc 647 [9]: 297000 | PBMCs CD4+ percent bound of viable [9]: 28% | SKW3 WT vs KO ratio, anti-hKappa-FITC [10]: 1.9 | SKW3 WT vs KO ratio, anti-mFc-647 [10]: 5 | gMFI on SKW3 WT, anti-mFc 647 [11]: 12100 gMFI | OKT4a signal (anti-hu A647) with supernatant [12]: 36800 | OKT4-A488 signal with supernatant [13]: 8240 | Ibalizumab ELISA binning signal (huCD4-HIS): 1.35e+06

B4: 75110_08D24A (antibody, V domains shown)
VH: QVQLQESGPGLVKPSETLSLTCTVSGGSISGFYWSWIRQPAGKGLEWIGRIYTSENTNYNPSLKSRVTMSVDTSKNQFSLKLSSVTAADTAVYYCARDREGYYYYGMDVWGQGTTVTVSS
VL: DIQMTQSPSSLSASVGDRVTITCQASQDISNYLNWYQQKPGKAPKLLIYAASNLETGVPSRFSGSGSGTDFTFTISSLQPEDIATYYCQQYDSLPITFGQGTRLEIK
notes: as for B3
gMFI on SKW3 WT, anti-hu Kappa FITC [7]: 3570 gMFI | RPA-T4-PE-Dazzle 594 signal with supernatant [8]: 14600 | PBMCs CD4+ gate RL1 binding, anti-mFc 647 [9]: 278000 | PBMCs CD4+ percent bound of viable [9]: 30% | SKW3 WT vs KO ratio, anti-hKappa-FITC [10]: 1.1 | SKW3 WT vs KO ratio, anti-mFc-647 [10]: 4.1 | gMFI on SKW3 WT, anti-mFc 647 [11]: 20100 gMFI | OKT4a signal (anti-hu A647) with supernatant [12]: 42500 | OKT4-A488 signal with supernatant [13]: 7930 | Ibalizumab ELISA binning signal (huCD4-HIS): 887000

B5: 75110_06G04A (antibody, V domains shown)
VH: QVQLLESGPGLVKPSETLSLTCTVSGGSISSYYWSWIRQPAGKGLEWIGRIYISGSTNYNPSLKSRVTMSIDTSENQFSLNLSSVTAADTAVYYCARELERPYYYGMDVWGQGTTVTVSS
VL: DIQMTQSPSSLSASVGDRVTITCQASQDISNYLNWYQQKPGKAPKLLIYNASTLETGVPSRFSGSGSGTDFTFTISSLQPEDIATYYCQQYDNLPLTFGGGTKVEFK
notes: as for B3
gMFI on SKW3 WT, anti-hu Kappa FITC [7]: 8480 gMFI | RPA-T4-PE-Dazzle 594 signal with supernatant [8]: 16600 | PBMCs CD4+ gate RL1 binding, anti-mFc 647 [9]: 240000 | PBMCs CD4+ percent bound of viable [9]: 30% | SKW3 WT vs KO ratio, anti-hKappa-FITC [10]: 3.3 | SKW3 WT vs KO ratio, anti-mFc-647 [10]: 9.3 | gMFI on SKW3 WT, anti-mFc 647 [11]: 33700 gMFI | OKT4a signal (anti-hu A647) with supernatant [12]: 30800 | OKT4-A488 signal with supernatant [13]: 9310 | Ibalizumab ELISA binning signal (huCD4-HIS): 1.96e+06
